The Kd is the concentration at which binding is half-saturated. A low value points to a tighter complex. A word on the koff: it is the rate constant with which the complex falls apart. High values mean fast dissociation, low ones slow dissociation. The term kon denotes the rate constant with which the complex forms.

The source of these data is patent US20180318440A1 (US Dept. of Health and Human Services, published 2018).

The target in assay [1] is T1, human FGFR4 extracellular domain (FGFR4-ECD) (human, UniProt P22455 22-369).
T1 construct: extracellular domain; also called hFGFR4-ECD
T1 sequence (looked up): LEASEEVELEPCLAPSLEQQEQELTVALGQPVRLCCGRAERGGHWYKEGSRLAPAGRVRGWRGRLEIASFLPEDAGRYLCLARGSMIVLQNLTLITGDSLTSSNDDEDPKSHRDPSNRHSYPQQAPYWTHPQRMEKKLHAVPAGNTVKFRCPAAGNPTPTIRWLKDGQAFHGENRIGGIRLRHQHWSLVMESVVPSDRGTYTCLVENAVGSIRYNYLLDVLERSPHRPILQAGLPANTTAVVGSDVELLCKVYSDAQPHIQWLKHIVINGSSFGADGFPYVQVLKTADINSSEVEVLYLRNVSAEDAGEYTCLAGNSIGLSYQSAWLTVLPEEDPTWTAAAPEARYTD
Put plainly: SPR (BIACORE), mAb immobilized on the chip, FGFR4-ECD in solution; 'Observed KD'. As to the method:
(§1) The affinity of two of the FGFR4-specific mAbs was tested using surface plasmon resonance.
(§2) The mAb was immobilized in a CMS chip and the binding of FGFR4 extracellular domain (FGFR4-ECD) was detected by measuring surface plasmon resonance in a BIACORE™ instrument

Assay [2] has as its target T1, human FGFR4 extracellular domain …. Put plainly: SPR (BIACORE), mAb immobilized on the chip, FGFR4-ECD in solution; column head prints 10^4, read as 10^-4 because that agrees with the printed kon and KD. The procedure: as §1, §2
(Surface plasmon resonance follows binding to a sensor surface in real time, without labels.)

For assay [3] the target is unchanged. Put plainly: SPR (BIACORE), mAb immobilized on the chip, FGFR4-ECD in solution. As to the method: as §1, §2

B1: 57.1 rabbit anti-FGFR4 mAb (antibody, V domains shown)
VH: QSVKESEGRLVTPGTPLTLTCTVSGFSLSTYAMSWVRQAPEKGLEWIGIIYATAETYYATWARGRFTISKTSTTVDLKITSPATEDTATYFCARLNGDGSGTYAYDIWGPGTLVTVSS
VL: ELVMTQTPSPVSAAVGGTVTINCQASQSISSSYLSWYQQKPGQPPKLLIYKASTRPSGVSSRFKGSGSGTQFTLTISGVQCADAATYYCLYGYYIDSGADNSFGGGTEVVVK
Turning to B1, the dissociation constant Kd in assay [1] is 110 nM. Moreover, in assay [2], the koff worked out at 0.00018 s⁻¹. Also, the kon in assay [3] amounted to 1700 M⁻¹ s⁻¹.

B2: 29.2 rabbit anti-FGFR4 mAb (antibody, V domains shown)
VH: QSVKESEGRLVTPGTPLTLTCTVSGFSLSSNSVGWVRQAPGKGLEWIGIISSSGNRYYASWAKGRFTISKTSTTVDLKITSPTTEDTATYFCGGDPVSWYGDIWGPGTLVTVSS
VL: ELVLTQTPSSVSAAVGGTVTINCQSSPSLYKNNYLSWYQQKPGQPPKLLIYSASTLASGVPSRFKGSGSGTEYTLTISGVQCDDAATYYCLGGYSLSSDSPRAFGGGTEVVVK
The molecule B2 had a Kd in assay [1] of 17 nM. This molecule gave a koff in assay [2] of 0.00043 s⁻¹. In assay [3], the kon is 25000 M⁻¹ s⁻¹.
